Data as given in patent publication US20090253152A1 (OREGON HEALTH AND SCIENCE UNIVERSITY, published 2009).
Ends that are not written are not given here.

Biological target: T1, insulin-like growth factor I (IGF-I) (human, UniProt P05019 49-118, 125I-labelled in the ligand blots, affinity cross-linking and solution binding assay; unlabelled in BIAcore)
T1 construct: Human is stated only for the BIAcore material (rhIGF-I); also called rhIGF-I
Experiment: dot ligand blot: E. coli GST-fusion lysate dotted on nitrocellulose, probed with 125I-IGF-I; anti-GST dot immunoblot as loading control
Description: For dot blots, 2.5 μl of sample were dotted directly onto the nitrocellulose membrane. The membranes were then blocked for 1 h at 21° C. in 4% milk/TBS-T, followed by an overnight incubation at 4° C. with anti-IGFBP-3 monoclonal antibody (Diagnostic Systems Laboratories, Inc., Webster, Tex.), anti-GST polyclonal antibody (Amersham Pharmacia Biotech, Piscataway, N.J.), anti-PY20 monoclonal antibody (Santa Cruz Biotech, Santa Cruz, Calif.), or anti-IRS-1 polyclonal antibody (Upstate, Lake Placid, N.Y.), all at 1:3000 dilutions. Membranes were washed with TBS-T and incubated for 1 h at 21° C. with a 1:3000 dilution of horseradish peroxidase-linked antirabbit or antimouse IgG secondary antibodies (Amersham Pharmacia Biotech, Piscataway, N.J.). Proteins were detected by enhanced chemiluminescence reagents, according to the manufacturer's protocol (NEN Life Science Products, Boston, Mass.).
Lane 1, ⁽¹⁻⁴⁶⁾IGFBP-3; lane 2, ⁽¹⁻⁷⁵⁾IGFBP-3; lane 3, ⁽¹⁻⁸⁰⁾IGFBP-3; lane 4, ⁽¹⁻⁸⁷⁾IGFBP-3; lane 5, full-length IGFBP-3; lane 6, pGEX4T-1 vector alone. The binding of these IGFBP-3 “deletion” fragments to [¹²⁵I]-IGF-I is shown, along with wild-type IGFBP-3 binding, and control vector (pGEX4T-1) to [¹²⁵I]-IGF-I. For each protein sample, the protein extract was directly pipetted onto nitrocellulose paper, incubated in 1% BSA with [¹²⁵I]-IGF-I, and then exposed to film. […]

T1 sequence (P05019 49-118 limits assumed): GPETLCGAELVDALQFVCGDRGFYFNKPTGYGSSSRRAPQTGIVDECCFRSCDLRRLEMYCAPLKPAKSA

- binding result: no binding
B1: (1-46)IGFBP-3 FLAG-tagged fragment, GST-fusion (E. coli) (other, human)
chain: GASSAGLGPVVRCEPCDARALAQCAPPPAVCAELVREPGCGCCLTCDYKDDDDK
modifications: cysteine pairing not given here; also: GST fusion with the vector's linker, linker sequence and fusion end not given here
notes: range 1-46; Tested as crude E. coli cell lysate; not shown: glutathione S-transferase encoded by vector pGEX4T-1, with the vector's linker
